Data set [1] has as its target T1, NF90long;NF45 (Mus musculus;Homo sapiens, UniProt Q9Z1X4;Q12905 1-591;1-390, |). Briefly: SEC and EDC cross-linking (SDS-PAGE, CLMS); protein:RNA 1:1 and 2:1; 18-bp complex formation: 30 min on ice, SEC in 20 mM HEPES pH 7.5, 150 mM NaCl, 1 mM DTT; mass photometry at 10-50 nM protein; SAXS and EM buffers not in the material. The following applies: protein: recombinant;recombinant; tags: C-terminal 6xHis (non-cleavable);N-terminal GST, removed with 3C protease; copies: 1;1; blunt.

The target of data set [2] is T1, NF90long;NF45. Briefly: SEC-SAXS; mass photometry; protein:RNA 2:1 and 4:1; RNA saturated at 4:1; 18-bp complex formation: 30 min on ice, SEC in 20 mM HEPES pH 7.5, 150 mM NaCl, 1 mM DTT; mass photometry at 10-50 nM protein; SAXS and EM buffers not in the material. To be noted: protein: recombinant;recombinant; tags: C-terminal 6xHis (non-cleavable);N-terminal GST, removed with 3C protease; copies: 1;1; S13 is labelled 3'-5' but pairs only if read 5'-3' (18 bp, 7-nt 3' tails). For orientation: SEC sorts molecules by how far they enter the pores of the column.

Data set [3] deals with T1, NF90long;NF45. Briefly: quantitative EDC CLMS; 18-bp complex formation: 30 min on ice, SEC in 20 mM HEPES pH 7.5, 150 mM NaCl, 1 mM DTT; mass photometry at 10-50 nM protein; SAXS and EM buffers not in the material. The following applies: protein: recombinant;recombinant; tags: C-terminal 6xHis (non-cleavable);N-terminal GST, removed with 3C protease; copies: 1;1; blunt.
In data set [4] the target is T1, NF90long;NF45. Kind of data set: SEC-SAXS; mass photometry; not more than 4 heterodimers per RNA (SAXS); up to 3 by mass photometry; 18-bp complex formation: 30 min on ice, SEC in 20 mM HEPES pH 7.5, 150 mM NaCl, 1 mM DTT; mass photometry at 10-50 nM protein; SAXS and EM buffers not in the material. To be noted: protein: recombinant;recombinant; tags: C-terminal 6xHis (non-cleavable);N-terminal GST, removed with 3C protease; copies: 1;1; blunt.

Here are results for 4 molecules from article PMC11952958, “Integrative structural analysis of NF45–NF90 heterodimers reveals architectural rearrangements and oligomerization on binding dsRNA”.

B1: 18-bp 2'-fluoro dsRNA (EDC) (XNA)
RNA 1: UCACUUUCAUAAUGCUGG
RNA 2: CCAGCAUUAUGAAAGUGA
modifications: uniform 2'-fluoro (printed beside the top strand; Methods call the duplex 2'-fluorinated)
In the case of B1, the binding result in data set [1] was “binds”.

B2: 25-bp dsRNA (SAXS) (dsRNA)
RNA 1: UCACUUUCAUAAUGCUGGUCACUUU
RNA 2: CCAGCAUUAUGAAAGUGACCAGCAU
In the case of B2, the binding result in data set [2] is “binds”.

B3: 25-bp GC-rich dsRNA (CLMS) (dsRNA)
RNA 1: GCCGCGGAGGCCCCGCCGUGGGCCC
RNA 2: GGGCCCACGGCGGGGCCUCCGCGGC
For the molecule B3, the binding result in data set [3] is “binds”.

B4: 54-bp dsRNA (SAXS) (dsRNA)
RNA 1: UCACUUUCAUAAUGCUGGUCACUUUCAUAAUGCUGGUCACUUUCAUAAUGCUGG
RNA 2: CCAGCAUUAUGAAAGUGACCAGCAUUAUGAAAGUGACCAGCAUUAUGAAAGUGA
With B4, the binding result in data set [4] is “binds”.
